According to patent US20260209386A1 (MYTHIC THERAPEUTICS, published 2026):
Residue numbers refer to the chain shown, from its start.

B1: MYT10888 (antibody, V domains shown)
VH: EVQLVESGGGLVQPGGSLRLSCTASGFSHSNYVMNWVRQAPGKGLEWVGIIDSSGSTYYASWAKGRFTISRDTSKNTVYLQMNSLRAEDTAVYFCARGLYLWGQGTLVTVSS
VL: EIVMTQSPSTLSASVGDRVIITCQSSQSVYNNNLLAWYQQKPGKAPKLLIYYTSNLASGVPSRFSGSGSGAEFTLTISSLQPDDFATYYCQGGYNGNIYAFGQGTKLTVL
notes: IgG
B2: MYT10930 (antibody, V domains shown)
VH: B1 VH with H29L
VL: B1 VL with L35H
notes: IgG
B3: MYT10939 (antibody, V domains shown)
VH: B1 VH with H29L
VL: B1 VL with Q91H
notes: IgG
B4: MYT10895 (antibody, V domains shown)
VH: B1 VH with H29L, I50H
VL: B1 VL
notes: IgG
B5: MYT10935 (antibody, V domains shown)
VH: B1 VH with H29L
VL: B1 VL with N55H
notes: IgG
B6: MYT10925 (antibody, V domains shown)
VH: B1 VH with H29L
VL: B1 VL with Y30H
notes: IgG
B7: MYT10927 (antibody, V domains shown)
VH: B1 VH with H29L
VL: B1 VL with N32H
notes: IgG
B8: MYT10889 (antibody, V domains shown)
VH: B1 VH with H29L, S30H
VL: B1 VL
notes: IgG
B9: MYT10911 (antibody, V domains shown)
VH: B1 VH with H29L, A96H
VL: B1 VL
notes: IgG
B10: MYT10936 (antibody, V domains shown)
VH: B1 VH with H29L
VL: B1 VL with L56H
notes: IgG
B11: MYT10916 (antibody, V domains shown)
VH: B1 VH with H29L, L101H
VL: B1 VL
notes: IgG
B12: MYT10946 (antibody, V domains shown)
VH: B1 VH with H29L
VL: B1 VL with I98H
notes: IgG
B13: MYT10905 (antibody, V domains shown)
VH: B1 VH with H29L, A60H
VL: B1 VL
notes: IgG
B14: MYT10903 (antibody, V domains shown)
VH: B1 VH with H29L, Y58H
VL: B1 VL
notes: IgG
B15: MYT10928 (antibody, V domains shown)
VH: B1 VH with H29L
VL: B1 VL with N33H
notes: IgG
B16: MYT10949 (antibody, V domains shown)
VH: B1 VH with H29L
VL: B1 VL with T108E, V109I, L110K
notes: IgG
B17: MYT10920 (antibody, V domains shown)
VH: B1 VH with H29L
VL: B1 VL with S25H
notes: IgG
B18: MYT10891 (antibody, V domains shown)
VH: B1 VH with H29L, Y32H
VL: B1 VL
notes: IgG
B19: MYT10898 (antibody, V domains shown)
VH: B1 VH with H29L, S53H
VL: B1 VL
notes: IgG
B20: MYT10896 (antibody, V domains shown)
VH: B1 VH with H29L, I51H
VL: B1 VL
notes: IgG
B21: MYT10926 (antibody, V domains shown)
VH: B1 VH with H29L
VL: B1 VL with N31H
notes: IgG
B22: MYT10943 (antibody, V domains shown)
VH: B1 VH with H29L
VL: B1 VL with N95H
notes: IgG
B23: MYT10937 (antibody, V domains shown)
VH: B1 VH with H29L
VL: B1 VL with A57H
notes: IgG
B24: MYT10942 (antibody, V domains shown)
VH: B1 VH with H29L
VL: B1 VL with Y94H
notes: IgG
B25: MYT10897 (antibody, V domains shown)
VH: B1 VH with H29L, D52H
VL: B1 VL
notes: IgG
B26: MYT10944 (antibody, V domains shown)
VH: B1 VH with H29L
VL: B1 VL with G96H
notes: IgG
B27: MYT10951 (antibody, V domains shown)
VH: EVQLVESGGGLVQPGGSLRLSCTASHFSLSSYAMGWVRQAPGKGLEWVGFINAGGNTYYANWAKGRFTISRDTSKNTVYLQMNSLRAEDTAVYFCARRYSRASGWYDLWGQGTLVTVSS
VL: EIVMTQSPSTLSASVGDRVIITCQASQSISSYLAWYQQKPGKAPKLLIYAASTLASGVPSRFSGSGSGAEFTLTISSLQPDDFATYYCQSYSYSSGIDYGDVFGQGTKLTVL
notes: IgG
B28: MYT10962 (antibody, V domains shown)
VH: B27 VH with H26G, I51H
VL: B27 VL
notes: IgG
B29: MYT10957 (antibody, V domains shown)
VH: B27 VH with H26G, Y32H
VL: B27 VL
notes: IgG
B30: MYT10959 (antibody, V domains shown)
VH: B27 VH with H26G, M34H
VL: B27 VL
notes: IgG

target: T1, Human PTK7/CCK4 Protein, His Tag, Acro Biosystems PT7-H52H3 (human, UniProt Q13308 31-704); assay: BLI, antibody on anti-human Fc sensor, 50 nM PTK7
T1 construct: bought protein; also called Human PTK7 Protein, His Tag, Acro Biosystems; not shown: His tag
T1 sequence: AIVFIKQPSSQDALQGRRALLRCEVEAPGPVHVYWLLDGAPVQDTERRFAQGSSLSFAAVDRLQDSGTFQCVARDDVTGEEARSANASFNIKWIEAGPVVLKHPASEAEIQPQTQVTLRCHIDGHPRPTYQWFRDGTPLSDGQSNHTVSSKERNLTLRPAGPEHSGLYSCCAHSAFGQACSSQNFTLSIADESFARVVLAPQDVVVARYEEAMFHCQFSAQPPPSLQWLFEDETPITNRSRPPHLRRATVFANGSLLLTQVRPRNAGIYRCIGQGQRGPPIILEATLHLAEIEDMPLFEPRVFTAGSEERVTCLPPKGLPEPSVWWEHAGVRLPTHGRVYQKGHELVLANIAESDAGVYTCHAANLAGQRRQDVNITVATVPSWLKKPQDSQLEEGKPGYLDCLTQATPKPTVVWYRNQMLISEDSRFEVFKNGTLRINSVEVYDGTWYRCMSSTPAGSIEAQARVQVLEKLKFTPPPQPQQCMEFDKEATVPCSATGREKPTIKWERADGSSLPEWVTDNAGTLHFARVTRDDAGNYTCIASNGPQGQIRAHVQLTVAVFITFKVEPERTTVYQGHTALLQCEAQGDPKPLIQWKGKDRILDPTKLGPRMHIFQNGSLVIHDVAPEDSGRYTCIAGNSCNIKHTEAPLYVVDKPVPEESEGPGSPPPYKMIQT

Binding result, binds:
B1
B2
B3
B4
B5
B6
B7
B8
B9
B10
B11
B12
B13
B14
B15
B16
B17
B18
B19
B20
B21
B22
B23
B24
B25
B26
B27
B28
B29
B30
